Target: wild type CFTR (cystic fibrosis transmembrane conductance regulator) chloride channel (human, UniProt P13569 1-1480, phosphorylated by PKA in the assay (50 units/ml PKA and 2 mM ATP in the cis solution); sites not listed for the assay)
Test: cell-based or functional assay

wild type CFTR (cystic fibrosis transmembrane conductance regulator) chloride channel, sequence (P13569 whole entry): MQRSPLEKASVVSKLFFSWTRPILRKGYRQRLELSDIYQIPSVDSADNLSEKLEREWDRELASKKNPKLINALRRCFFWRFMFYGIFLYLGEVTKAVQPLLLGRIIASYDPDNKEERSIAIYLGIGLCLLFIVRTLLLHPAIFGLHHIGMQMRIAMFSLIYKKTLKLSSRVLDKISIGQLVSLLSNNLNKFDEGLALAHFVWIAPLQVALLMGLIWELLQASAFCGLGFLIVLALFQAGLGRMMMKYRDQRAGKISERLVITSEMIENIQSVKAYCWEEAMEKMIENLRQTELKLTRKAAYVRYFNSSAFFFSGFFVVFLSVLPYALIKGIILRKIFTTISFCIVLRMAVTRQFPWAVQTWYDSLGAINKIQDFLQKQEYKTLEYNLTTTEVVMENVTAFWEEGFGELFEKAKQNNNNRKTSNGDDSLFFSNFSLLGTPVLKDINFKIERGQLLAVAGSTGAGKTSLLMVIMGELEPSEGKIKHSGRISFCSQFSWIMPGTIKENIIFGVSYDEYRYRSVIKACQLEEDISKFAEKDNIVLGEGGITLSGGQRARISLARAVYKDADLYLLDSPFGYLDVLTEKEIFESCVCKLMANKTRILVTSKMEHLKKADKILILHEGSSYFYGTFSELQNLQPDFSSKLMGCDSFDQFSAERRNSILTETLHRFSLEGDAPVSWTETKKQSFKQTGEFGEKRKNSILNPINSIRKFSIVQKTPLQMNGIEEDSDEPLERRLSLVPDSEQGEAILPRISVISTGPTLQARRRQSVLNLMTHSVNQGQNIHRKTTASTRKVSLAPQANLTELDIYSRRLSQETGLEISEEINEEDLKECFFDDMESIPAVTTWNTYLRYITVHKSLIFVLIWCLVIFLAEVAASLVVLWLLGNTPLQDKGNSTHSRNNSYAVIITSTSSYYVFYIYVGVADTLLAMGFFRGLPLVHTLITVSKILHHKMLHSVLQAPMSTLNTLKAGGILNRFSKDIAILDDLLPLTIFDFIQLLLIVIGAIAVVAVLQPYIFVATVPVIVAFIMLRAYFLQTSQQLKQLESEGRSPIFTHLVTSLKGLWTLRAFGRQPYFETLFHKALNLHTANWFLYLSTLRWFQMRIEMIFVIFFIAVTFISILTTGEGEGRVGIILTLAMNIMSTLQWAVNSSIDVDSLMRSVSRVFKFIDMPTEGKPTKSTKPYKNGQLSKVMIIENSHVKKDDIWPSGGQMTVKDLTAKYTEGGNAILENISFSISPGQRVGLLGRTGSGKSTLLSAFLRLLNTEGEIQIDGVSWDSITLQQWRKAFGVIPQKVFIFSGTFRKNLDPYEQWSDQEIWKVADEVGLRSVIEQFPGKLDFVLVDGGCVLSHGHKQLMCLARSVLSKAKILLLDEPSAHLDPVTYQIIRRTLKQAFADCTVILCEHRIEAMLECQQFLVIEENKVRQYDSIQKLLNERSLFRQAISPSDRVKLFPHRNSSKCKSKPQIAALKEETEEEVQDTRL

open probability of single wt-CFTR channel in planar lipid bilayer: > 2 fold
Binder: GLEISEEINEEDLKECFFDDME [synthetic NEG2 peptide (22 amino acid peptide corresponding to CFTR amino acids 817-838)]
